From the supplement of paper PMC10567573

B1: SFRS1 (parent)
chain: RDIDLKNRRGGPPFAFVEFEDPRD

Variants of: B1
Assay: protein stability index of a GFP-peptide fusion (GPS, HEK-293T) (PSI 1-6); higher = more stable
Details: c terminus: a fixed tail appended
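Further: lentivirally expressed fusions sorted by FACS into six bins by GFP to DsRed ratio, PSI derived from sequencing read proportions per bin multiplied by bin number.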

Variant	protein stability index
RDIDLKNRRGGPPFAFVEFSDPRD	2.89
RDIDLKNRRGGPPFAFVEFNDPRD	3.68
RDIDLKNRRGGPPFAFVEFHDPRD	3.21
RDIDLKNRRGGPPFAFVEFVDPRD	3.02
RDIDLKNRRGGPPFAFVEFWDPRD	2.72
RDIDLKNRRGGPPFAFVEFIDPRD	2.56
RDIDLKNRRGGPPFAFVEFGDPRD	3.14
RDIDLKNRRGGPPFAFVEFFDPRD	2.67
RDIDLKNRRGGPPFAFVEFTDPRD	3.3
RDIDLKNRRGGPPFAFVEFADPRD	3.06
RDIDLKNRRGGPPFAFVEFKDPRD	3.52
RDIDLKNRRGGPPFAFVEFLDPRD	2.71
RDIDLKNRRGGPPFAFVEFYDPRD	2.46
RDIDLKNRRGGPPFAFVEFRDPRD	2.91
RDIDLKNRRGGPPFAFVEFMDPRD	2.57
RDIDLKNRRGGPPFAFVEFDDPRD	3.94
RDIDLKNRRGGPPFAFVEFCDPRD	2.67
RDIDLKNRRGGPPFAFVEFPDPRD	3.66
RDIDLKNRRGGPPFAFVEFQDPRD	2.91
RDIDLKNRRGGPPFEFVEFEDPRD	5.13
RDIDLKNRRGGPPFNFVEFEDPRD	4.73
RDIDLKNRRGGPPFTFVEFEDPRD	4.54
RDIDLKNRRGGPPFYFVEFEDPRD	3.56
RDIDLKNRRGGPPFGFVEFEDPRD	4.63

Variant	protein stability index
RDIDLKNRRGGPPFLFVEFEDPRD	3.76
RDIDLKNRRGGPPFRFVEFEDPRD	2.25
RDIDLKNRRGGPPFCFVEFEDPRD	3.83
RDIDLKNRRGGPPFIFVEFEDPRD	3.42
RDIDLKNRRGGPPFSFVEFEDPRD	4.22
RDIDLKNRRGGPPFVFVEFEDPRD	3.58
RDIDLKNRRGGPPFHFVEFEDPRD	4.46
RDIDLKNRRGGPPFMFVEFEDPRD	3.84
RDIDLKNRRGGPPFFFVEFEDPRD	3.12
RDIDLKNRRGGPPFQFVEFEDPRD	4.79
RDIDLKNRRGGPPFKFVEFEDPRD	4.56
RDIDLKNRRGGPPFDFVEFEDPRD	4.44
RDIDLKNRRGGPPFPFVEFEDPRD	4.31
RDIDLKNRRGGPPFWFVEFEDPRD	3.7
RDIDLKNRRGGPPFAWVEFEDPRD	3.97
RDIDLKNRRGGPPFADVEFEDPRD	5.04
RDIDLKNRRGGPPFAHVEFEDPRD	4.77
RDIDLKNRRGGPPFACVEFEDPRD	4.45
RDIDLKNRRGGPPFARVEFEDPRD	5
RDIDLKNRRGGPPFANVEFEDPRD	4.91
RDIDLKNRRGGPPFAYVEFEDPRD	4.26
RDIDLKNRRGGPPFAVVEFEDPRD	4.62
RDIDLKNRRGGPPFAPVEFEDPRD	5.26
RDIDLKNRRGGPPFALVEFEDPRD	4.81

Variant	protein stability index
RDIDLKNRRGGPPFATVEFEDPRD	4.96
RDIDLKNRRGGPPFAIVEFEDPRD	4.36
RDIDLKNRRGGPPFAEVEFEDPRD	5.2
RDIDLKNRRGGPPFAAVEFEDPRD	5.03
RDIDLKNRRGGPPFAQVEFEDPRD	5
RDIDLKNRRGGPPFAKVEFEDPRD	4.89
RDIDLKNRRGGPPFASVEFEDPRD	4.7
RDIDLKNRRGGPPFAGVEFEDPRD	5.32
RDIDLKNRRGGPPFAMVEFEDPRD	4.88
RDIDLKNRRGGPPFAFVLFEDPRD	1.9
RDIDLKNRRGGPPFAFVMFEDPRD	2.35
RDIDLKNRRGGPPFAFVHFEDPRD	2.51
RDIDLKNRRGGPPFAFVKFEDPRD	2.64
RDIDLKNRRGGPPFAFVAFEDPRD	2.18
RDIDLKNRRGGPPFAFVWFEDPRD	1.88
RDIDLKNRRGGPPFAFVNFEDPRD	3.24
RDIDLKNRRGGPPFAFVDFEDPRD	3.22
RDIDLKNRRGGPPFAFVIFEDPRD	2.24
RDIDLKNRRGGPPFAFVFFEDPRD	1.81
RDIDLKNRRGGPPFAFVRFEDPRD	3.13
RDIDLKNRRGGPPFAFVYFEDPRD	2.3
RDIDLKNRRGGPPFAFVCFEDPRD	2.4
RDIDLKNRRGGPPFAFVPFEDPRD	2.99
RDIDLKNRRGGPPFAFVSFEDPRD	2

Variant	protein stability index
RDIDLKNRRGGPPFAFVTFEDPRD	2.74
RDIDLKNRRGGPPFAFVVFEDPRD	2.2
RDIDLKNRRGGPPFAFVQFEDPRD	2.53
RDIDLKNRRGGPPFAFVGFEDPRD	2.77
RDIDLKNRRGGPPFAFVEFECPRD	2.73
RDIDLKNRRGGPPFAFVEFEGPRD	2.55
RDIDLKNRRGGPPFAFVEFEQPRD	3.54
RDIDLKNRRGGPPFAFVEFESPRD	3.26
RDIDLKNRRGGPPFAFVEFEMPRD	2.8
RDIDLKNRRGGPPFAFVEFENPRD	3.38
RDIDLKNRRGGPPFAFVEFEHPRD	3.34
RDIDLKNRRGGPPFAFVEFETPRD	3.72
RDIDLKNRRGGPPFAFVEFEIPRD	2.63
RDIDLKNRRGGPPFAFVEFEKPRD	3.73
RDIDLKNRRGGPPFAFVEFERPRD	3.08
RDIDLKNRRGGPPFAFVEFEAPRD	3.1
RDIDLKNRRGGPPFAFVEFEPPRD	3.45
RDIDLKNRRGGPPFAFVEFELPRD	2.51
RDIDLKNRRGGPPFAFVEFEEPRD	3.99
RDIDLKNRRGGPPFAFVEFEFPRD	2.65
RDIDLKNRRGGPPWAFVEFEDPRD	3.77
RDIDLKNRRGGPPNAFVEFEDPRD	4.58
